2 molecules from WO2011158973A1 (dated 2011) can be followed below.

The target in experiment [1] is T1, mouse fibrinogen (mouse, UniProt E9PV24 20-557; Q8K0E8 20-481; Q8VCM7 26-436, limits assumed).
T1 construct: also called fibrinogen (4)
T1 sequence (looked up) 1: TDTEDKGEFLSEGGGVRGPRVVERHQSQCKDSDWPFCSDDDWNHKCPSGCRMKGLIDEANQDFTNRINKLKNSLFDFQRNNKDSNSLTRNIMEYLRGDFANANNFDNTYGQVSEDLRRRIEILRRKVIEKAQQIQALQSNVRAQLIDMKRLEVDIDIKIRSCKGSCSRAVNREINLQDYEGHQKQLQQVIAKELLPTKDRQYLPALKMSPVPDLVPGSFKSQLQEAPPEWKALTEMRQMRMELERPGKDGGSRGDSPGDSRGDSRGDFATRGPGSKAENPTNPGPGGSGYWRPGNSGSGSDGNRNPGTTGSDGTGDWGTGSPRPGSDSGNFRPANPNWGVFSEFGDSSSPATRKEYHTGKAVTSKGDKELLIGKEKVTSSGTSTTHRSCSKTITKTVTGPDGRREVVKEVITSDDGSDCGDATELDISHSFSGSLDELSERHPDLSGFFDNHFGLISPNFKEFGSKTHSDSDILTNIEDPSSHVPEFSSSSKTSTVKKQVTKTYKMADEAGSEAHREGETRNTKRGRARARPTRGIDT
T1 sequence (looked up) 2: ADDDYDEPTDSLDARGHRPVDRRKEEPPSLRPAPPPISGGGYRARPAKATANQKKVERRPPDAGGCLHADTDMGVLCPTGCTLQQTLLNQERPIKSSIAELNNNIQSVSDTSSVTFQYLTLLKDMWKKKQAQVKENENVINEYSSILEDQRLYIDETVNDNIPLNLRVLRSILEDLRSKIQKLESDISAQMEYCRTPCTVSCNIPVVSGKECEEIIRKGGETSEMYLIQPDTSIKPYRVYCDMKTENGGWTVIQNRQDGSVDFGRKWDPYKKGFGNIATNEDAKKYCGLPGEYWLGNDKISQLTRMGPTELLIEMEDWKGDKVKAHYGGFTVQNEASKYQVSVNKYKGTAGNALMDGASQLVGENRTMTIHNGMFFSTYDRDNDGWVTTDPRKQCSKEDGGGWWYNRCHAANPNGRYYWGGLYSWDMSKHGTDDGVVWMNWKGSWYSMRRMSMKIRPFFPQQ
T1 sequence (looked up) 3: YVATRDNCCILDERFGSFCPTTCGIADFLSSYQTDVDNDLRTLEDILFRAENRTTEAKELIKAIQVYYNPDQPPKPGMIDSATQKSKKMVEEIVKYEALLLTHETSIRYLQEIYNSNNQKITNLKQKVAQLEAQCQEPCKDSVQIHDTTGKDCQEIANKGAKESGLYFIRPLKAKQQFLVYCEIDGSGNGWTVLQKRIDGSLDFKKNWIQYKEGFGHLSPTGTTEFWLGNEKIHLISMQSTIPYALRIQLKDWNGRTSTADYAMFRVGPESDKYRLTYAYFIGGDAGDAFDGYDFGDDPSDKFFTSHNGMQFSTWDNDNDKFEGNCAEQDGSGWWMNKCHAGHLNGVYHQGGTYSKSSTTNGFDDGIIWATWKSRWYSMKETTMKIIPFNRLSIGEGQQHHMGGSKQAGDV
Nature of the experiment: ELISA, hybridoma 102-10 culture supernatant on fibrinogen plate (Fig. 1C). (ELISA stands for enzyme-linked immunosorbent assay.)

The target in experiment [2] is T2, human fibrin (human, UniProt P02671 36-629; P02675 45-491; P02679 27-437, limits assumed).
T2 construct: Made on the plate: fibrinogen (Sigma) coated at 50 ug/ml, dried, then treated with 10 NIH U/ml human thrombin with 10 mM CaCl2 and 7 mM L-cysteine; also called fibrin plate; fibrin (1)
T2 sequence (looked up) 1: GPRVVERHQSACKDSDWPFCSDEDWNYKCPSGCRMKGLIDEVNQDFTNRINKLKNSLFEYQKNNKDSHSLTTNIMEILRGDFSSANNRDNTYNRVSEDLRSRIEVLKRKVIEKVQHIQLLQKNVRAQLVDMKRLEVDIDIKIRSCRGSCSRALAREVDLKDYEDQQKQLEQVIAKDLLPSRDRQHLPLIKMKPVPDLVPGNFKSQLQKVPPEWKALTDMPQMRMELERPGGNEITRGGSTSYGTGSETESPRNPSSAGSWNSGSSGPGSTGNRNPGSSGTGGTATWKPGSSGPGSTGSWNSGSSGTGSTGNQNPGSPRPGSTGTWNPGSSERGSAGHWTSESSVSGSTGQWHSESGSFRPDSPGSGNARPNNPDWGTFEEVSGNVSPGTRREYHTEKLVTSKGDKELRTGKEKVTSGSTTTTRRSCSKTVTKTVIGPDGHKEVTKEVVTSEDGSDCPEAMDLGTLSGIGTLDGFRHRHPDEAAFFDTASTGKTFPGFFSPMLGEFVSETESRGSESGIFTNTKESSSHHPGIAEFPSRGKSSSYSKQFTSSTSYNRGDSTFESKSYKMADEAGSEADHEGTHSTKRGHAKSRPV
T2 sequence (looked up) 2: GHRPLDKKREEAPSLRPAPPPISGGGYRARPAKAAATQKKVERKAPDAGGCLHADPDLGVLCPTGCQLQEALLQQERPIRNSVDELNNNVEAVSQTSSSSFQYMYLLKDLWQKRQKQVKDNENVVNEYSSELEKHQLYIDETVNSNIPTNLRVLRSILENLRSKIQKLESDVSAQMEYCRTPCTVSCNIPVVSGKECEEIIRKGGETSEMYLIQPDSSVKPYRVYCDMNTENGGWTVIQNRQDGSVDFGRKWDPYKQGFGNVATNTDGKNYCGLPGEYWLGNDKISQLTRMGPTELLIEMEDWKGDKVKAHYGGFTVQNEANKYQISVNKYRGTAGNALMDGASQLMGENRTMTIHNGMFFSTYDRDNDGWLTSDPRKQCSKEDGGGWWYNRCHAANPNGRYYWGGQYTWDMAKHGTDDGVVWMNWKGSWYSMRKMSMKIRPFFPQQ
T2 sequence (looked up) 3: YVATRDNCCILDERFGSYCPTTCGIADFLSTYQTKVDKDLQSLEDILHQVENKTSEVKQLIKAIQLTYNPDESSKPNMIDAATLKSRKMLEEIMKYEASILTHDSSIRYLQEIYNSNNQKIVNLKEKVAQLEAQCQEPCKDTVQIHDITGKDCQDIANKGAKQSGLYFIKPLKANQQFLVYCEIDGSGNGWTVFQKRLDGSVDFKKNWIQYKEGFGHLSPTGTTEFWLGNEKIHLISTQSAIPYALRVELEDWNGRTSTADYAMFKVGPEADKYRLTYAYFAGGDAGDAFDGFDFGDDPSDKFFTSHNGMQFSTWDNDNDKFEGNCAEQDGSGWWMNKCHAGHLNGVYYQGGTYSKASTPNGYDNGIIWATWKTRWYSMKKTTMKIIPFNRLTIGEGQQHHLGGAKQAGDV
The experiment in a line: ELISA, hybridoma culture supernatant (undiluted) on fibrin plate; selection of the clone.

The target in experiment [3] is T3, human fibrinogen (human, UniProt P02671 20-629; P02675 31-491; P02679 27-437, limits assumed).
T3 construct: Bought (Sigma), coated on 96-well plates at 50 ug/ml in TBS pH 8.5; also called fibrinogen (Sigma) plate; fibrinogen (2)
T3 sequence (looked up) 1: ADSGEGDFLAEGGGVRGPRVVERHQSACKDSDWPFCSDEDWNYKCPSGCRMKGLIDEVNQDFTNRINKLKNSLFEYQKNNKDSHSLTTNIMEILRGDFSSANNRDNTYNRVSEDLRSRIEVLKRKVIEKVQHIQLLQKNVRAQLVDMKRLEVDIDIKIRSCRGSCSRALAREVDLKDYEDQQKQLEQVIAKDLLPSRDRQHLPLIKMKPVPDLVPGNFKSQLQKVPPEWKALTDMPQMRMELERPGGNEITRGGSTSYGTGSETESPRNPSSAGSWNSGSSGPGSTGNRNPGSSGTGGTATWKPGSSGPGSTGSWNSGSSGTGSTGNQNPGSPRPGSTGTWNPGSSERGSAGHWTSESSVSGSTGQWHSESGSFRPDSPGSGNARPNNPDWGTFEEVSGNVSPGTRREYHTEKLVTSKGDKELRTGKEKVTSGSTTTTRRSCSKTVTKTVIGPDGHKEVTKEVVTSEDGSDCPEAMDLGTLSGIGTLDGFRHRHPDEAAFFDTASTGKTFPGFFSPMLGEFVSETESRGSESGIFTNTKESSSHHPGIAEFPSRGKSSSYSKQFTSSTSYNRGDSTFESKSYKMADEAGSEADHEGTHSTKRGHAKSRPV
T3 sequence (looked up) 2: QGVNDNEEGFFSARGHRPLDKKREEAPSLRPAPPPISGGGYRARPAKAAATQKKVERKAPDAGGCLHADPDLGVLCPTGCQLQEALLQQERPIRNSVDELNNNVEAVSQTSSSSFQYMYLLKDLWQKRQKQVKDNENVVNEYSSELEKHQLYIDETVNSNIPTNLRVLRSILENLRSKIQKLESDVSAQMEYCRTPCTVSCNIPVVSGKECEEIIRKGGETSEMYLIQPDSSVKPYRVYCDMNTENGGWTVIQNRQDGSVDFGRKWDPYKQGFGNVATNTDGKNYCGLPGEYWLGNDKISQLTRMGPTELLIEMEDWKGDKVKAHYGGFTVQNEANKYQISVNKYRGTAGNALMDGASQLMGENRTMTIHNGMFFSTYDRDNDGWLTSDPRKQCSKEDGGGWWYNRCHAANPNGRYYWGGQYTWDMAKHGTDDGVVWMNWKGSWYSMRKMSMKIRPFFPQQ
T3 sequence (looked up) 3: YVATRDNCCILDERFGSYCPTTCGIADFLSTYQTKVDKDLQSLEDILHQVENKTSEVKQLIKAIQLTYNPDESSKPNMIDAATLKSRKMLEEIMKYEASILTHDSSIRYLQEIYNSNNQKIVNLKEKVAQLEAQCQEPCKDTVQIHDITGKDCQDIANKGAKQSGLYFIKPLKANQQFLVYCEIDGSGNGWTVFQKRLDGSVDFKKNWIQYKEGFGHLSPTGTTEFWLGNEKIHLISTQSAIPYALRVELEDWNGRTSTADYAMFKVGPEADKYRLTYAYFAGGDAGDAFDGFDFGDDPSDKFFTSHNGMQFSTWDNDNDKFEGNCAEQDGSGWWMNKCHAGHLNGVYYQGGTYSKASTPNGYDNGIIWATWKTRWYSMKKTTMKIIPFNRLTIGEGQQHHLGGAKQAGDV
Nature of the experiment: ELISA, hybridoma culture supernatant (undiluted) on fibrinogen plate; selection of the clone.

The target of experiment [4] is T2, human fibrin. Nature of the experiment: ELISA, purified chimeric antibody on fibrin plate (Fig. 3).
The target in experiment [5] is T3, human fibrinogen. The experiment in a line: ELISA, purified chimeric antibody on fibrinogen plate (Fig. 3).
Experiment [6] deals with T1, mouse fibrinogen. The description is as above.

B1: mouse anti-fibrin IgM antibody produced by hybridoma cell line 102-10 (accession number NITE BP-923) (antibody, V domains shown)
VH: QIQLVQSGPELKKPGETVKISCKASGYTFTNYGMNWVKQAPGKGLKWMGWINTYTGEATYADDFKGRFAFSLETSANTAYVQINNLKNEDTATYFCARLMDYWGQGTSVTVSS
VL: DIQMTQSPSSLSASLGGKVTITCKASQDINKYIAWFQHKPGKGPRLLIHYTSTLQPGIPSRFSGSGSGRDYSFSISNLEPEDLATYYCLQYDNLTWTFGGGTKLEIK
notes: Mouse IgM; Tested as hybridoma culture supernatant in ELISA; also called clone 102-10; mouse IgM antibody
B1: the binding result in the experiment with mouse fibrinogen [1] is recorded as “no binding”; with human fibrin [2] it was “binds”; in the experiment with human fibrinogen [3] it was “no binding”.

B2: human type anti-fibrin chimeric antibody (human type IgG clone 102-10Hu) (antibody, V domains shown)
VH: QIQLVQSGPELKKPGETVKISCKASGYTFTNYGMNWVKQAPGKGLKWMGWINTYTGEATYADDFKGRFAFSLETSANTAYVQINNLKNEDTATYFCARLMDYWGQGTSVTVSS
VL: DIQMTQSPSSLSASLGGKVTITCKASQDINKYIAWFQHKPGKGPRLLIHYTSTLQPGIPSRFSGSGSGRDYSFSISNLEPEDLATYYCLQYDNLTWTFGGGTKLEIK
notes: made in CHO cells, purified on Protein G and hydroxyapatite; They may include a leader peptide; no cleavage site is stated; also called human chimeric antibody; human chimeric anti-fibrin IgG
On to B2, for which the binding result in the experiment with human fibrin [4] is “binds”; with human fibrinogen [5], “no binding”; in the experiment with mouse fibrinogen [6], “no binding”.
